We go through 19 sequences from the DeepSol protein solubility set.

The data set in a line: soluble on expression in E. coli; label from the status in PepcDB or PDB records.
Take “MSLTVPQSITELDLKNLTNRTFHPSPVAWEDQVLYFLLLDRFSDGKETGYRDNRGRRVAKGETPLYQPGDAGNAIRTEPEAAVWRESGSRWCGGTLKGLASKMGYLKRMGVTAVWVSPLFKQCSFVPTYHGYGIQNFLEVDPHFGTADDLRELVHVAHANGIYVILDIILNHAGNIFAYDRGYTPYDGSTVYPVTGFRSADGTPNLPFGPIDTKANPDAWPDGAVWPRELQAANAYTRMGHIRDWDSYHEYLDGDFFDLKDIHLGEGEVDAFRPSPALLALCEVYKYWIALSDVDGYRIDTVKHMGAGATRFFASVIHEFAQAIGKENFYLIGEITGGRDNAFNTLATTGLNAALGVDDIPLRLEDLVKGRANPADYFNLFRNSLLVRKESHVWFRDKVVTVIDDHDQVCRGAKKERFCAGDPKWRRLVLNALALNTTTLGIPCVYYGTEQAFDGEGGDDRYLRECMFGGPFGAFRTRGVQFFDEENPVYREFAKILALRREKLPLRRGRQYLREISGDGVTFGLPYVIGGEIRSVVPWSRIFDTEEMVLAINTDADSPRTAWVLVDGSLHREGDRFAYRYSTDPGQVRGTTAVQRINDAVQAIQVTVPAAGFVMLEQREGHHHHHH”: the “soluble on expression in E. coli” value is “soluble”.

For “MAHHHHHHMPLKFAPKALNPEDSMRLAVVHMLRHDNAVILQTFTGNRGSSATRHGRLLRFMPHFPFCPTEKTGETAEEAPHLVEIAPLQLPYWARGSSRETMWPAARTPEAVHPSPPHFPHFLAERSSSLFVSISLPHFDLPLVFASPRREQRCSRDCRAEWLPRAVMDRDVAATWDEMLSAFCAAWSAAVRIEKTPFALLPPSLSHPLLAEQPLGEGRVPLQDEPAASFRLDPIVVPRRKLDRQRSERMLPPILAVDVAGKWNDTPSVFKSQEAALQRRFLAVARTLERTTAAPSRPLIVASVETPLTSDAAGECERLELASVVVPPFMCTQRMKAGRPWREGGHAGGRDTLVQEHSESLFSRMPPCMTRATELRFPDGKHMRQTLTLRNTAKERLEKLCGLRPPRRHRQKMAECFSTSKFSIARSRELAAAALLPSTVLSAASRVKPPHCSERKRRRGDVPPPPPPLQLLPHVRATAVFAFSSWQPLTLEEEEEENNDTCCEEELKIAPWRVFPREVELQSFQQLLERRIERNGKAMRVGNDDEEEKWYHAAFVHDVNTMPLPYREVSDLVEDARLHYCYRLALHREKRRLGL”, the “soluble on expression in E. coli” value was “not soluble”.

As for “MNTNLAELPVRIFKILSEELQKDNIWIKIVEFDEDPIYYMKSTEIESFLKREKCCEQVLRKWGNRGQTVGSLLARLQFLSRTYEDEFDSIQFHLRRKFKPLRWIPDPEQQVTKEIDEGNIKLECKAQGFPCPEIKWFTKGSKEPVHIGRVYTILRCKCSNEHQYKCVAKNEIREGSPYSEIYRKAGKQFSSVIESEYVDVTSCIRDDELCESCKKYEMGRLSQILAEDQEKPENKVSPVRPNLDITLRAADKVALIMSNCSYVHLPELRTPHCDAQTLADALQKMNYKTVTLADLTLDEMRYFIRVYQKLIGNGVYAVFYFVGHGFEVNGQCYLLGVDAPADAHQPQHSMSMDWLLSIFRHKTPDLNLLLLDVCRKFVPYDAISAFVEYSEQFKKFHRAHRNMVYGYSTSGGVGAYEVKGEVNGVFMKYLKNHVQLEISVIDMLNKVLLDIGDDQKVCDLQVPEIRSTLTHPRSLADPLIFDGHTASFDNHTIHWRLMHELPTPATIRFETQQLVATIWFQFCGNFTNKVYVFASISDFRPCQEDTDMGENEELSENALNHRAFVEFPEELHCSDVREYNDDEEGVSMLWILSGLQKIKKEAGLTCEVHLRHVDDPEKTIEMKNVDIGHILITRIKCLQ”, the “soluble on expression in E. coli” value is recorded as “not soluble”.

With “MNQPLAGYAPAPAGARMENHGNHMLKVAMQTGNDLLARVGSMTAYEGFVQYEPNPPAVRQIAKDWMTGEGAPLMKCSGDGLLYLADYGANVVVINLNGDGISVNATNLLAFDAHLTWGVERVKGLAKFAGQGLWNTKISGQGWVALTSRGKPIVVDCGGGEDETYVDPDALVAWSPNLKVKGKRSFKAQSLIGRGSGEAFQMAFSGQGIVVVQPSEDSTDRLRVRGLEHHHHHH”, the “soluble on expression in E. coli” value is recorded as “not soluble”.

As to “MKPIDRFSYLKNNRVSQDTSSLVQCYLPIIGQEALSLYLYTISFWDNGRKEYLFSSILNHLNFGMDRLIKSLKILSAFNLLTLYQKGDVYQLALHAPLSSQDFLGHPVYRRLLEKKIGDVAVEDLKVESADGEEIPVSLNQVFPELAELGSQEDLGLKKKVANDFDLEHFRQLMARDGLRFADEQSDVLNLFAIAEEKKWTWFETYQLAKSTAVSQVISTKRMREKIAQKPVSSDFSLKEATIIKEAKSKTALQFLAEIKQTRKGTITQTERELLQQMAGLGLLDEVINIILLLTFNKVDSANINEKYAMKVANDYAYQKIHSAEEAVLRIRDRGQKAKTQKQNQTAPEKTNVPKWSNPEYKNETSEETRLELERKKQELLARLEKG”, the “soluble on expression in E. coli” value was “soluble”.

With “CDAGRAKDKANEMMQGGNSLFGAMEGGTKEQVVLDMIDLGEHDAKTLLECEYETLGIHVSGNPLDEFKEEIKGFKNLVKSIDIEELEIGS”, the “soluble on expression in E. coli” value is recorded as “not soluble”.

Regarding “MAHHHHHHMASAEAEVAADMSAMWRYAEEARAGSSALSDLTYAERQAMLRAVAKALQTNEARILEANREDMVAAKANATADPLLRRLELTPSKLATLIEGISTLADMPDPIGQILSARELDNNLLLLKQTAPIGVVLVVFESRPESLPQIASLALCSGNGLLLKGGREGEHSNAVLHDLIVSAVESSTQGRVPRGVIGLVTNRADVYSLLQLDAHIDLVVPRGSNAMVQNIQRSTRIPVLGHADGICHVYVHKDADVDAALAVAIDAKLNYPAACNAAETLLLHRDLLHSPAHGTTAAQFLVNGMTEAGVSFYAGPQAIAAGLASELAASLHMEYGDAHMTVEVVDDLAAAIAHVNRHGSHHTDTILTVDKAAAAEFQRRVESACVFHNCSTRFADGFRFGLGAEVGISTARIHARGPVGVEGLLTQKWVLKPMGSLPQATEDGAAAAAANAPYATVAEFQKGQRVFTHKDVTRKLQDEAAGLRLQA”, the “soluble on expression in E. coli” value is reported as “not soluble”.

“MSLSQLEPRQQAFRNAMAHLSAAVNVITSNGPAGRCGITATAVCSVTDSPPTLMLCINRNSEMNTVFKANGRLCVNVLSGEHEEVARHFAGMTEVPMERRFALHDWREGLAGLPVLHGALANLQGRIAEVQEIGTHSVLLLELEDIQVLEQGDGLVYFSRSFHRLQCPEGGSHHHHHH”: the “soluble on expression in E. coli” value is given as “soluble”.

In the case of “MGHHHHHHSHMARATTKQDLIMASNGQFEKLWVLIDGMSDDLQNATFADQMATAGKEAHWGRDKNLRDVLVHLYEWHQLLLNWINSNSKGERKPFLPEPYNWKTYSVMNVEFWKKHQQTPLAEAKDKLKESHRQVMALIETFSNDELFAKGVFDWTDTSTLGAYCVSATSSHYDWAMKKIKLHIKTGK”, the “soluble on expression in E. coli” value was “soluble”.

Regarding “MAKGDPKKPKGKMSAYAFFVQTCREEHKKKNPEVPVNFAEFSKKCSERWKTMSGKEKSKFDEMAKADKVRYDREMKDYGPAKGGKKKKDPNAPKRPPSGFFLFCSEFRPKIKSTNPGISIGDVAKKLGEMWNNLNDSEKQPYITKAAKLKEKYEKDVADYKSKGKFDGAKGPAKVARKKVEEEDEEEEEEEEEEEEEEDE”, the “soluble on expression in E. coli” value was “soluble”.

For “MSWQAYVDTSLLGTGKIDRAAIVSRAGDSVWAASAGFNLSPQEIQGLAAGFQDPPSMFGTGIILAGQKYITIRAEGRSIYGKLQKEGIICVATKLCILVSHYPETTLPGEAAKITEALADYLVGVGY”, the “soluble on expression in E. coli” value is recorded as “soluble”.

Take “MSTTIRFLRIVTSRAMSSSWSCNKCTFLNSASQKLNCMICLAPVSLPSLSPPPPSLSISANDEAKWACKACTFLNTYKNSICDVCGTRSPTSSLLGFQDLTDSGLESNDADSSVGSVFFPLRRCIKRKAMDDDVVEVDGASVVCSESQGVMKKNKEIETKGVASDSGTPLTCLKILSYNVWFREDLELNLRMRAIGHLIQLHSPHLICFQEVTPEIYDIFRKSNWWKAYSCSVSVDVAVSRGYYCMLLSKLGVKSFSSKSFGNSIMGRELSIAEVEVPGRKPLVFATSHLESPCPGPPKWDQMFSRERVEQAKEAIEILRPNANVIFGGDMNWCDKLDGKFPLPDKWVDVWEVLKPGDLGFTYDTKANPMLSGNRALQKRLDRILCRLDDYKLGGIEMVGKEAIPGLSYVKEKKVRGDIKKLELPVLPSDHFGLLVTLSPK”: the “soluble on expression in E. coli” value is “soluble”.

For “MAKVLCVLYDDPVDGYPKTYARDDLPKIDHYPGGQTLPTPKAIDFTPGQLLGSVSGELGLRKYLESNGHTLVVTSDKDGPDSVFERELVDADVVISQPFWPAYLTPERIAKAKNLKLALTAGIGSDHVDLQSAIDRNVTVAEVTYCNSISVAEHVVMMILSLVRNYLPSHEWARKGGWNIADCVSHAYDLEAMHVGTVAAGRIGLAVLRRLAPFDVHLHYTDRHRLPESVEKELNLTWHATREDMYPVCDVVTLNCPLHPETEHMINDETLKLFKRGAYIVNTARGKLCDRDAVARALESGRLAGYAGDVWFPQPAPKDHPWRTMPYNGMTPHISGTTLTAQARYAAGTREILECFFEGRPIRDEYLIVQGGALAGTGAHSYSKGNATGGSEEAAKFKKAV”, the “soluble on expression in E. coli” value is recorded as “soluble”.

Turning to “DKMTIEVPVLTFVPVQVSAELENRGCWVKFFDKKNFQGDSLFLSGPATLPRLIGPFGYDWENKVRSVKVGPRANLTIFDNHNYRDEDKFLDAGANVANLSKEMGFFDNFRSMVLNCI”, the “soluble on expression in E. coli” value is recorded as “soluble”.

“MSLELKPKRFLVLDDQLVLRKLISRQASFFTRFAVEIDEFSDPAEALRSIAEGGYHLVITDIGMPGMNGIDFIKNVARLGYQSALLIISGYDGKTLQTIADMSVNLGLSCTRFLSKPYSAEAFVAALNGIFSEMERSEAEGHHHHHH”: the “soluble on expression in E. coli” value was “not soluble”.

In the case of “LKVLTNKASVMLFMKGNKQEAKCGFSKQILEILNSTGVEYETFDILEDEEVRQGLKTFSNWPTYPQLYVRGDLVGGLDIVKELKDNGELLPILKGE”, the “soluble on expression in E. coli” value is “soluble”.

As for “MHDAATSMPPQAPSTWADYLAGYRWRGQGEGCSAATVHRLEAARRPTLFVKQEVLSAHAELPAEIARLRWLHGAGIDCPQVLNETQSDGRQWLLMSAMPGDTLSALAQRDELEPERLVRLVAAALRRLHDLDPAACPFDHRLERRLDTVRQRVEAGLVDEADFDDDHRGRSATELYRLLLDRRPAVEDLVVAHGDACLPNLLAEGRRFSGFIDCGRLGVADRHQDLALAARDIEAELGAAWAEAFLVEYGGDIDGERLAYFRLLDEFF”, the “soluble on expression in E. coli” value is given as “soluble”.

For the sequence “MGSDKIHHHHHHMFQSDLKLIVFQHGFFGERFVANLMNYPNSCPSYGACGIDGCTQCKEGLYNFSKNIIAVFSMPDPTTMPDFIENAEDFLPKVIPEADIAVAINLHPDVLAVMPEKLKGKVKALIVPVEEPRWCSPGLAKQIREKCDELGLEFAAPKPFCNLRPSEEHPTINRMIEEMRIGYPEFEIELLEDGKAYVRISRSQPCGCAYYIGVKLRGFDFSEVKEGKMRELWNVVAEAHHSYPCTASMERDNEYNETLLHVGGYIARHAVNRALGYEGDEDIPEHIKHIVL”, the “soluble on expression in E. coli” value is reported as “not soluble”.

With “MNFPWRDGNRVELLINGEEYFPRLFQCIAEARREILLETFIIFEDEVGRQLQEALSAAAERGVEVQVTVDGYGTASLSPDYLARLTASGVRVHLFDPRPRLLGMRTNLFRRLHRKLVVIDRRQAFVGGINYGEDHLVRRGNMAKQDYAVRVEGPVVRDIRQACLALLEPDADYPPLRPSGAGQPARVRLVIRDNDQSSDDIEREYLQAIRQARRRLLIANAYFFPGYRLLRELRDAARRGVRVDLVLQGMPDMPLVRLCSRLLYDYLLREGVRIHEYCQRPLHGKVAVIDDDWSTIGSSNLDPLSLSLNLEANLVIRDVAFNGQLYQHLRELARRHCRRISRRHARRGYWWRAPLIFLGFHFSRHFPAIAGWVPAHLPRLKSLEPRPSRRWQERQGQRGNP”, the “soluble on expression in E. coli” value is on record as “not soluble”.
